Source: patent US20050142561A1 (published 2005)

Target: T1, Saccharomyces cerevisiae Fab1p (Saccharomyces cerevisiae, UniProt P34756 1-2278)
T1 construct: Constructs used in the two-hybrid, coimmunoprecipitation and cross-linking experiments are not described; also called PI3P 5-kinase
Assay: yeast two-hybrid; coimmunoprecipitation; cross-linking

T1 sequence (P34756 whole entry): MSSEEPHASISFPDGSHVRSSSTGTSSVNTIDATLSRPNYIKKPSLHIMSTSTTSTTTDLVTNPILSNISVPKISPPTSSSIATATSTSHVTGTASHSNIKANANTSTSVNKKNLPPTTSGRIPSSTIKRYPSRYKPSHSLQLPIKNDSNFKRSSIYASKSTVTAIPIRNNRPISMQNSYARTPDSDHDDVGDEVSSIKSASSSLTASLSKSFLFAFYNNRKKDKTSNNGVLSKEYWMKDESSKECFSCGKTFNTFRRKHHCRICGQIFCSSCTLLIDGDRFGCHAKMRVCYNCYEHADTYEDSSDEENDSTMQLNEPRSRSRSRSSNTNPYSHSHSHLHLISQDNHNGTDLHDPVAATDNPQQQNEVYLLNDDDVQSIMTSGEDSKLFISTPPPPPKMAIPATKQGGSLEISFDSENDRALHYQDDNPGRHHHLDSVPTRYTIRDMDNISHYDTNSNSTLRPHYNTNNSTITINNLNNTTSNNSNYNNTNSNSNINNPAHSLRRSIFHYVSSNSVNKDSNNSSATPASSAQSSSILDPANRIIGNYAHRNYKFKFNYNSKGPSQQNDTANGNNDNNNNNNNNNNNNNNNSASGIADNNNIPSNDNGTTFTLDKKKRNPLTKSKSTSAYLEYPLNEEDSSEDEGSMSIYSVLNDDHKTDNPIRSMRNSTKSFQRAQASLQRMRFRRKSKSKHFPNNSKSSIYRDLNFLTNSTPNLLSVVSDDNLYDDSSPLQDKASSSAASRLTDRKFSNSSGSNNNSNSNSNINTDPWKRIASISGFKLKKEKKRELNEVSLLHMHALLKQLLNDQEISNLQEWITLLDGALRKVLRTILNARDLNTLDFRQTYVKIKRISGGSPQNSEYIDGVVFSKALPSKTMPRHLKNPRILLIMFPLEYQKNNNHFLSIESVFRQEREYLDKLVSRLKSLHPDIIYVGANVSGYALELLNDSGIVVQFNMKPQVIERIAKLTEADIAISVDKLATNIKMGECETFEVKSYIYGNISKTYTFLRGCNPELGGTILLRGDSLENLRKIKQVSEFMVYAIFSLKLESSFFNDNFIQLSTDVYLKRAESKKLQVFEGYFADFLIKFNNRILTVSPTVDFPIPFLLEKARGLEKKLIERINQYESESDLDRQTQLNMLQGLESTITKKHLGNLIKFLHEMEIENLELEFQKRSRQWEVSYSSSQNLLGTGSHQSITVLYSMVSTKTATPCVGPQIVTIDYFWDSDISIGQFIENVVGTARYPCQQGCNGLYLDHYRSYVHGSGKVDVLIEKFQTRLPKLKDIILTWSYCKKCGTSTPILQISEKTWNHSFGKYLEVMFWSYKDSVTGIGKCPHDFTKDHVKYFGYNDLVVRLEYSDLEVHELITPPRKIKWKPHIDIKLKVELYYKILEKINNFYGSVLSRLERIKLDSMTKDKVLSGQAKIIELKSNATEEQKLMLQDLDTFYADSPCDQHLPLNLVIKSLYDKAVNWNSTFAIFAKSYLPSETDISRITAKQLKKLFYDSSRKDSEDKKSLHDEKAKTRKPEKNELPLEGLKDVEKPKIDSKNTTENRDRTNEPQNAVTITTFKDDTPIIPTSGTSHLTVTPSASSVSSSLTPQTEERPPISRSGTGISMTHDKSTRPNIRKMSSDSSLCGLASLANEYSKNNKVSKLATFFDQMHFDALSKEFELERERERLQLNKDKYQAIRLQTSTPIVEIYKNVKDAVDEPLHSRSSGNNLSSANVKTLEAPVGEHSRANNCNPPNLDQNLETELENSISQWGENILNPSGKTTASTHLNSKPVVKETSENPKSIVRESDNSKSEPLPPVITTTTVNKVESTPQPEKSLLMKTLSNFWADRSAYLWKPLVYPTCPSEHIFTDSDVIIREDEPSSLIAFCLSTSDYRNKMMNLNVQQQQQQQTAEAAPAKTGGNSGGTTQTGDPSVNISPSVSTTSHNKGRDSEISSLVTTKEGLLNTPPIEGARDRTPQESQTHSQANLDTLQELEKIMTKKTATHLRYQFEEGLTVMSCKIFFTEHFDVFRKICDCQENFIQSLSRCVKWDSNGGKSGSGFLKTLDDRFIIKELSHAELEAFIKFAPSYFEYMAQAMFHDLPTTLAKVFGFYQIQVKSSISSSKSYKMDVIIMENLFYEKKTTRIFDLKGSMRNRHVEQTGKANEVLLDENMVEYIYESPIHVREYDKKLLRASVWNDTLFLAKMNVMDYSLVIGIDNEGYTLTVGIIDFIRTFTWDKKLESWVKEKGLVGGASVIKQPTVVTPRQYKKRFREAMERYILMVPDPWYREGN

B1: Saccharomyces cerevisiae Vac14p (other)
chain: MEKSIAKGLSDKLYEKRKAAALELEKLVKQCVLEGDYDRIDKIIDELCRDYAYALHQPMARNAGLMGLAATAIALGINDVGRYLRNILPPVLACFGDQNDQVRFYACESLYNIAKIAKGEILVYFNEIFDVLCKISADTENSVRGAAELLDRLIKDIVAERASNYISIVNNGSHGLLPAIKTDPISGDVYQEEYEQDNQLAFSLPKFIPLLTERIYAINPDTRVFLVDWLKVLLNTPGLELISYLPSFLGGLFTFLGDSHKDVRTVTHTLMDSLLHEVDRISKLQTEIKMKRLERLKMLEDKYNNSSTPTKKADGALIAEKKKTLMTALGGLSKPLSMETDDTKLSNTNETDDERHLTSQEQLLDSEATSQEPLRDGEEYIPGQDINLNFPEVITVLVNNLASSEAEIQLIALHWIQVILSISPNVFIPFLSKILSVLLKLLSDSDPHITEIAQLVNGQLLSLCSSYVGKETDGKIAYGPIVNSLTLQFFDSRIDAKIACLDWLILIYHKAPNQILKHNDSMFLTLLKSLSNRDSVLIEKALSLLQSLCSDSNDNYLRQFLQDLLTLFKRDTKLVKTRANFIMRQISSRLSPERVYKVISSILDNYNDTTFVKMMIQILSTNLITSPEMSSLRNKLRTCEDGMFFNSLFKSWCPNPVSVISLCFVAENYELAYTVLQTYANYELKLNDLVQLDILIQLFESPVFTRMRLQLLEQQKHPFLHKCLFGILMIIPQSKAFETLNRRLNSLNIWTSQSYVMNNYIRQRENSNFCDSNSDISQRSVSQSKLHFQELINHFKAVSEEDEYSSDMIRLDHGANNKSLLLGSFLDGIDEDKQEIVTPISPMNEAINEEMESPNDNSSVILKDSGSLPFNRNVSDKLKK
notes: 880 amino acid polypeptide; In the Western blot it is the endogenous protein of yeast cell extracts; also called Vac14 yeast; YLR386W product
  binding result: no binding
